In publication PMC5300068, “Flexibility in Mannan-Binding Lectin-Associated Serine Proteases-1 and -2 Provides Insight on Lectin Pathway Activation” (Structure(London, England:1993), 2017):

Target: the molecule itself
Experiment: AUC; sedimentation velocity, 50,000 rpm, absorbance optics, c(s) analysis; physiological ionic strength, buffers with Ca2+ or EDTA; 0.8-2.2 uM for full-length MASPs; dimer to monomers

B1: rat MASP-2 CUB1-EGF-CUB2 (MASP-2 3D) (domain or fragment)
chain: SKWPEPVFGRLVSLGFPEKYGNHQDRSWTLTAPPGFRLRLYFTHFNLELSYRCEYDFVKLTSGTKVLATLCGQESTDTERAPGNDTFYSLGPSLKVTFHSDYSNEKPFTGFEAFYAAEDVDECRTSLGDSVPCDHYCHNYLGGYYCSCRVGYILHQNKHTCSALCSGQVFTGRSGFLSSPEYPQPYPKLSSCAYNIRLEEGFSITLDFVESFDVEMHPEAQCPYDSLKIQTDKREYGPFCGKTLPPRIETDSNKVTITFTTDESGNHTGWKIHYTSTAQP
modifications: N-glycosylated (glycosylation sites shown in Figure 1)
notes: Homodimer; production details are in the Supplemental Information; source: Chinese hamster ovary cells, purified (gel filtration, Superdex 200 16/60); not shown: His6, C-terminal, kept
- stoichiometry N: 2
